Assay results taken from the nanobody polyreactivity screen of Harvey et al. (2022).

Assay: yeast display, Sf9 membrane polyspecificity reagent, FACS + sequencing; frameworks hold sequencing errors
Method in brief: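 Genes from sorted yeast were amplified by colony PCR, read by MiSeq 2 × 250 sequencing and filtered on CDR length. These cells carried a synthetic nanobody library in Saccharomyces cerevisiae BJ5465 and were sorted by FACS into low and high (top ~1%) gates on anti-HA and streptavidin fluorescence. Polyreactivity is labelled according to the gate of origin.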

Row | Sequence | polyreactivity (PSR sort gate)
1 | QVHLVESGGGLVQAGGSLRLSCAASGRTYIRNAMGWYRQAPGKERELVAAISSRGGRTYYADSVKGRFTISRDNAKNTVYLQMNSLKPEDTAVYYCAADFTYKLDGYDYWGQGTQVTVSS | high polyreactivity
2 | QVQLVESAGGLVQAGGSLRLSCAASGRIFSFNAMGWDRQAPGKERELVATIRTDGTTNYADSVKGRFTISRDNAKNTVYLQMNSLKPEDTAVYYCATDSGWSTYDYWGQGTQVTVSS | high polyreactivity
3 | QVQLVESGGGLVQAGGSLRLSCAASGSICAYYAMGGYRQAPGTERELVAAISQSGGSTYYADSVKGRVTISRDNAKNTVYLQMNSLKPEDTADYYCAARFRYGYSGYRYDYWGQGTQVNVSS | high polyreactivity
4 | QVQLVESGGGLVQAGGSLRLSCAASGRIYKSYAMGWYRQAPGKERELVAAIRSGGSTYYADSVKGRFTISRDNAKNTVYLQMKSLKPEDTAVYYCAADRYSYGSNGYPRFEYYYWGQGTQVTVSS | high polyreactivity
5 | QVHLVESGGGLVQAGGSLRLSCAASGRIFTFYAMGWYRQAPGKERELVAAISSSGVRTYYADSVKGRFTISRDNAKNTVYLQMNSLKPEDTAVYYCAAASRANSYRYNYWGQGTQVTVSS | high polyreactivity
6 | QVQLVESGGGLVQAGGSLRLSCAASGFIFKWNAMGWYRQAPGKERELVAAITSGGGTYYADSVKGRFTISRDNAKNTVYLQMNSLKPEDTAVYYCAALGRYWPARRFDYWGQGTQVTVSS | high polyreactivity
7 | QVQLVESGGGLVQAGGSLRLSCAASGFTLGRYAMGWYRQAPGKEREFVAAISSSGTTTNYADSVKGRFTISRDNAKNTVYLQMNSLKPEDTAVYFCNAYTTKRRWIKYDYWGQGTQVTVSS | high polyreactivity
8 | QVQLVESGGGLVQAGGSLRLSCAASGITFDDYDMGWYRQAPGKERELVAAISWSGGSTYYADSVKGRFTISRDNAKTTVYLQMNSLKPEDTAVYYCAAEVIWWVREYYYWGQGTQVTVSS | low polyreactivity
9 | QVHLVESGGRLVQAGGSLRLRCAASGRTFIANVMGLYRQAPRKETELVAAISTRGGSTYYADSVKGRFTISRDYAKYTVYLHMNRLKPEDTAVDYCAAYYPAQRGFNSWGQGTQVTVSS | high polyreactivity
10 | QVQLVESGGGLVQAGGSLRLSCAASGRTFLYYAMGWYRQAPGKERELVAVISRDGGSTYYADSVKGRFTISRDNAKNTVYLQMNSLKPEDTAVYYCAKRYGWASGYWNSNYGYLYDYWGQGTQVTVSS | high polyreactivity
11 | QVQLVESGGGLVQAGGSLRLSCADSGRTIYSNAMGWNIQAPGKERELVAAITGSSGSTYYADSVKGRFTISRDNAKNTVYLQMYSLKPEDTAVYYCAASCYGSLVRQLRLRGQGTQVTVSS | low polyreactivity
12 | QVQLVETGGGLVQAGGSLRLICAASGSTFQNNAMGCYIQAPGKERELVAAIRFSGGSTYYADSVKGRFTISRDNAKNTVYLQMNSLKPEDTAVYYCNAVVKRWSDYSYPVRYDYWGQGTQVTVSS | high polyreactivity
13 | QVQLVESGGGLVQAGGSLRLSCAASGSTFPKYAMGWYRQAPGKERELVATISSGTRTYYADSVKGRFTISRDNAKNTVYLQMNSLKPEDTAVYYCAARYQPRKGAHYGYWGQGTQVTVSS | high polyreactivity
14 | QVQLVESGGGLVQAGGILRLSCAASGSIFRPYAMGWYRQAPGKERELVAAIRWSTRNTYYADSVKGRFTISRDNAKNTVYLQMNSLKPEDTAVYYCAAAYWPVVWFYYWGQGTQVTVSS | low polyreactivity
15 | QVQLVESGVGLVQAGGSLRLSCAASGSIFHIYAMGWYRQAPGKERELVAAMTYADSVKGRFTISRVNAKNTVYLQMNSLKPEDTAVYECNADNWPRIHGSAYDYWGQGTQVTVSS | low polyreactivity
16 | QVQLVESGGGLVQAGGSLRLSCAASGSTFAGYVMGWYRQAPGKERELVAAISRSGGSTYYADSVKGRFTISRDNAKNTVYLQMNSLKPEDTAVYYCAARNSPGLPGDYWGQGTQVTVSS | high polyreactivity
17 | QVQLVESGGGLVQAGGSLRLSCAASGSTLANYAMGWYRQAPGKERELVAAINSGGSTYYADSVKGRFTISRDNAKNTVYLQMNSLKPEDTAVYYCAAETPNYYGWWEPVWHYYWGQGTQVTVSS | high polyreactivity
18 | QVQLVESGGLLVQAGGSLRLSCAASGRIFTHNATGWYRQAPGKERELVAAISYSGVSTYYADSVKGRFTISRDNAKNTVYLQMNSLKPEDTAVYYCARRYWYPDAFYRYDYWGQGTQVTVSS | low polyreactivity
19 | QVQLVESGGGLVQAGGSLRLSCAASGGTFGFYAMGWYRQAPGKERELVAAISWSGVGTYYADSVKGRFTISRDNAKNTVYLQMNSLKPEATAVYYCAAKQYTQKISSPGTILRYYYWGQGTQVTVSS | high polyreactivity
20 | QVQLVESGGGLVQAGGSLRLSCAASGSTLPVNAMGWYRQAPGKERELVAAINRDGSTNYADSVKRPFTFSRDNAKNTVYLQMNSLKQEDTAVYYCAADGFGYPGKRYDYWGQGTQVTVSS | low polyreactivity
21 | QVQLVESGGGLVQAGGSLRLSCAASGGLFSVYAMGWYRQAPGKERELVASITVSGGSTSYADSVKGRFTISRDNAKNTVYLQMYSLKPEDTAVYYCNTDFAQAHTLSWYEDMDYWGQGTQVTVSS | low polyreactivity
22 | QVQLVESGGGLVQAGGSLRLSCAASGNTFPSYAMGWYRQAPGKERQLVAAITSGGRTYYADSVKGRFTISRDNAKNTVYLQMNSLKPEDTAVYYCAADWVVRYPWYRYYYWGPGTQVTVSS | high polyreactivity

Row | Sequence | polyreactivity (PSR sort gate)
23 | QVQLVESGGGLVQAGGSLRLSCAASGLTFFNYAMGWNRQAPGKERELVASITSGGSTNYADSVKGRFTISRDNAKNTVYLQMNSLNPEDTAVYYCAARYPYRTYKLSHSYARPYGYWGQGTQVTVSS | high polyreactivity
24 | QVQLVESGGGLVQAGGSLRLSCAASGSTFDPNAMGWYRHAPGKERELVAAIDSGGSSYYADSVKGRFTISRDNAKYTVYLQMNSLKPEDTAVYYCASNIVGRSPYDSNYDFEYWGQGTQVTVSS | low polyreactivity
25 | QVQLVESGGGLVQAGGSLRLSCAASGSLFRYYVMGWYRQAPGKERELVAAISSRGGSTYYADSVKGRFTISRDNAKNSVYLLMNSLKPEDTAFYYCAARFGGWDRGLDYWGQGTLVTVSS | high polyreactivity
26 | QFQLVESGGGLVQAGGSLRLSCAASGLTFSWYVMGWYRQAPGKERELVAAITNGGNTNYADSVKGRFTISRDNAKNTVYLQMNCLKPEDTAVYYCAARDPYTWPRSGSGYYEFDYWVQGTQVTVSS | low polyreactivity
27 | QVQLVESGGGLVQAGGSLRLSCAASGRTFYYYGRVWYRQAPGKERDFVAAITRSGGRTYYADSVKGRFTISRDNAKNTVYLQMNSLKPEDTAVYYCATGGYYRYSGLSVYGYPYEYWGQGTQVTVSS | high polyreactivity
28 | QVQLVESGGGLVQAGGSLRLSCAAYGSIIRRYAMGWYRQAPGKERELVATISSGSRTYYADSVKGRFTISRDNAKNTVYLQMNSLKPEDTAVYYCNARSRRVGLTLYNYWGQGTQVTVSS | high polyreactivity
29 | QVQLVESGGGLVQAGGSLRLSCAASGSTFQPYAMGWYREAPGKERELVATITWRGGRTYYADSVKGRFTISRDNAKYTVYLQMNSLKPEDTAVYYCNVAYRGFRYYYWGQGTQVNVSS | high polyreactivity
30 | QVQLVESGGGLVQAGGILRVSCAASGYTFLGYAMGWYRQPPGKEMELVAVISRTGGRTYYADSVKGRFTISRDNAKNTVYLQMNSLKPEDTAVYYCATEDYRGPEYDYWGQGTQVNVSS | high polyreactivity
31 | QVQLVESGGGLVQAGGSLRLSCAASGRIIWKNTMGWYRQAPGKERELVAAITYGGSTNYADSVKGRFTISRDNAKNTVYLQMNSLKPEDTAVYYCNAQISWDSGWGYSYHLDYWGQGTQVTVSS | low polyreactivity
32 | QVQLVESGGGLVQAGGSLRLSCAASGSTFVYAMGWYRQAPGKERELVAAITTGDSTYYADSVKGRFTISRDNAKNTVYLQMNSLKPEDTAVYYCAAQWYTRYGEYGYWGQGTQVTVSS | low polyreactivity
33 | QVQLVESGGGLVQAGGSLRLSCAASGSIFRNYAMGWYRQAPGKERELVAAITRGGGSTYYADSVKGRFTISRDNAKNTVYLQMNSLKPEDTAVYYGAAGSTRERNPRYGYWGQGTQVTVSS | high polyreactivity
34 | QVQLVESGGGLVQAGGSLRLSCAASGSTFVGNAMGWYRQAPGKERELVAAITGGGGSTNYADSVKGRFTISRDNAKNTVYLQMNSLKPEDTAVYYCAVEVYYTGFYYSPYAYDYWGQGTQVTVSS | low polyreactivity
35 | QVQLVESVGGLVQAGGILRLSCAASGSIFRSYAMGWYRQAPGKERELVAAIRSDGRTNYADSLKGRFTISRDNAKNTVYFPMNRLKPEDTAVYYCAAKAYYSYWRSMDYWGQGTQVTVSS | low polyreactivity
36 | QVQLVESGGGLVQAGGSLRLSCAASGITFPYYAMGWYRQAPGKERELVASINRSGGTNYADSVKGRFTISRDNAKNTVYLPMNSLKPVDTAVYYCAAPGRYGEYDYWGQGTQVNVSS | low polyreactivity
37 | QVQLEESGGGLVQAGGSLRLSCAASGSTFDNNGMGWYRQATGKERELVASITFNVGSTYYADSVKGRFTMSRDNAKNTVYLQMNSLKPEDTAVYYCGADDLNLSQALGYDFWGQGTQVTVSS | low polyreactivity
38 | QVQRVDSGGGLVQAGGRLRLSCAASGLNFYLYAMGLYRQAPRKEREFVAAITTSGGSTHYADSVKGRFTISRDNAKNTVYLQMNSLKPEDTAVYYCAADDYFHGPGMEFDFLGQGTQVTVSS | low polyreactivity
39 | QVQLVESGGGLVQAGGSLRLSCAASGSIFKINAMGCYTPAPGKERELVATITRSTGTTYYADSVKGRFTNSRDTAKNSVYLQMNSLKPEDTAVYYCATDGDSNKLDYWGQGTQVTVSS | low polyreactivity
40 | QVQLVESGGGLVQAGGSLRLSCAASGRTFRHNALGWYRQAPGKERELVAAISKSGGRTYYADSVKGRFTISRDNAKNTVYLQMNSLKPEDTAVYYCAAPLYVSTSGEVGYWGQGTQVTVSS | high polyreactivity
41 | QVQLVESGGGLVQAGGSLRLSCAASGRTFTGYAMGWYRQAPGKERELVAAITRSGTRTYYADSVKGRFTISRDNAKNTVYLQMNSLKPEDTAVYYCAAADTQGVSMDYWGQGTQVTVSS | high polyreactivity
42 | QVQLVESGGGLLQAGGSLRLSCAASGRNFKYYAMGWYRQAPGKEREFVAAISRSGGRTYYADSVKGRFTISRDNAKNTVYLQMNSLKPEDTAVYYCAAQPSSYVYYRQPFHYWGQGTQVTVSS | high polyreactivity
43 | QVQLVESGGGLVQAGGSLRLSCAASGSIFPHYAMGWYRQAPGKEREFVATISGSTGRTYYADSVKGRFTISRDNAKNTVYLQMNSLKPEDTAVYYCATSVGYYLPPIKYDYWGQGTQVTVSS | low polyreactivity
